Reference: the RNAGym collection of RNA variant scans (doi:10.7554/elife.80360)

B1: Twister Ribozyme (parent)
chain: AACACUGCCAAUGCCGGUCCCAAGCCCGGAUAAAAGUGGAGGGGGCGG

Variants of: B1
Assay: self-cleavage, relative activity (ratio to wild type); higher = more cleavage; co-transcriptional

Variant	self-cleavage
AUCACUGCCAAUGCCGGUCCCAAGCCCGGAUAUAAGUGGAGGGGGCGG [A2U A33U]	0.655
AUCACUGCCAAUGCCGGUCCCAAGCCCGGAUACAAGUGGAGGGGGCGG [A2U A33C]	0.457
AUCACUGCCAAUGACGGUCCCAAGCCCGGAUAAAAGUGGAGGGGGCGG [A2U C14A]	0.531
AGCACUGCCAAUGCCGGUCCCAAGCCCGGAGAAAAGUGGAGGGGGCGG [A2G U31G]	0.324
AGCACUGCCAAUGCCGGUCCCAAGCCCGGACAAAAGUGGAGGGGGCGG [A2G U31C]	0.3
AGCACUGCCAAUGCCGGUCCCAAGCCCGGAAAAAAGUGGAGGGGGCGG [A2G U31A]	0.328
AGCACUGCCAAUGCCGGUCCCAAGCCCGGAUAAAAGUGGAUGGGGCGG [A2G G41U]	0.0697
AGCACUGCCAAUGCCGGUCCCAAGCCCGGAUAAAAGUGGAAGGGGCGG [A2G G41A]	0.102
AGCACUGCCAAGGCCGGUCCCAAGCCCGGAUAAAAGUGGAGGGGGCGG [A2G U12G]	0.252
AGCACUGCCAAAGCCGGUCCCAAGCCCGGAUAAAAGUGGAGGGGGCGG [A2G U12A]	0.367
AUCACUGCCAAUGCCGGUCCCAAGCCCGGAUAAAAGUGGAGGGGGCGG [A2U]	0.738
AGCACUGCCAAUGCCGGUCCCAAGCCCGGAUAAAAGUGUAGGGGGCGG [A2G G39U]	0.122
AGCACUGCCAAUGCCGGUCCCAAGCCCGGAUAAAAGUGCAGGGGGCGG [A2G G39C]	0.0951
AUCACUGCCAAUGCCGGUCCCAAGCCCGGAUAAAAGUGCAGGGGGCGG [A2U G39C]	0.18
AUCACUGCCAAUGCCGGUCCCAAGCCCGGAUAAAAGUGUAGGGGGCGG [A2U G39U]	0.188
AUCACUGCCACUGCCGGUCCCAAGCCCGGAUAAAAGUGGAGGGGGCGG [A2U A11C]	0.309
AUCACUGCCAUUGCCGGUCCCAAGCCCGGAUAAAAGUGGAGGGGGCGG [A2U A11U]	0.75
AUCACUGCCAAUGCCGGUCCCAAGCCCGGAUAAGAGUGGAGGGGGCGG [A2U A34G]	0.292
AGCACUGCCAAUGCCGGUCCCAAGCCCGGAUAAAAGUGGAGAGGGCGG [A2G G42A]	0.148
AUCACUGCCAAUGCCAGUCCCAAGCCCGGAUAAAAGUGGAGGGGGCGG [A2U G16A]	0.256
AUCACUGCCUAUGCCGGUCCCAAGCCCGGAUAAAAGUGGAGGGGGCGG [A2U A10U]	0.604
AUCACUGCCCAUGCCGGUCCCAAGCCCGGAUAAAAGUGGAGGGGGCGG [A2U A10C]	0.449
AUCACUGCCAAUGCCGGUCCCAAGCCCGGAUAAAAGUGGGGGGGGCGG [A2U A40G]	0.163
AUCACUGCCAAUGCCGGUCCGAAGCCCGGAUAAAAGUGGAGGGGGCGG [A2U C21G]	0.0765
AUCACUGCCAAUGCCGGUCCAAAGCCCGGAUAAAAGUGGAGGGGGCGG [A2U C21A]	0.0621
AUCACUGCCAAUGCCGGUCCUAAGCCCGGAUAAAAGUGGAGGGGGCGG [A2U C21U]	0.0725
AGCACUGCCAAUGCCGGACCCAAGCCCGGAUAAAAGUGGAGGGGGCGG [A2G U18A]	0.123

Variant	self-cleavage
AGCACUGCCAAUGCCGGGCCCAAGCCCGGAUAAAAGUGGAGGGGGCGG [A2G U18G]	0.0967
AUCACUGCCAAUGCCGGUCCCAAGCCCGGAGAAAAGUGGAGGGGGCGG [A2U U31G]	0.626
AUCACUGCCAAUGCCGGUCCCAAGCCCGGAAAAAAGUGGAGGGGGCGG [A2U U31A]	0.605
AUCACUGCCAAUGCCGGUCCCAAGCCAGGAUAAAAGUGGAGGGGGCGG [A2U C27A]	0.124
AUCACUGCCAAUGCCGGUCCCAAGCCUGGAUAAAAGUGGAGGGGGCGG [A2U C27U]	0.357
AUCACUGCCAAUGCCGGUCCCAAGCCGGGAUAAAAGUGGAGGGGGCGG [A2U C27G]	0.126
AAAACUGCCAUUGCCGGUCCCAAGCCCGGAUAAAAGUGGAGGGGGCGG [C3A A11U]	0.212
AAAACUGCCACUGCCGGUCCCAAGCCCGGAUAAAAGUGGAGGGGGCGG [C3A A11C]	0.153
AUCACUGGCAAUGCCGGUCCCAAGCCCGGAUAAAAGUGGAGGGGGCGG [A2U C8G]	0.0705
AUCACUGUCAAUGCCGGUCCCAAGCCCGGAUAAAAGUGGAGGGGGCGG [A2U C8U]	0.109
AUCACUGCCAAUGCCGGUCCCAAGCCCGGAUAAAAGUGGAGGGGGGGG [A2U C46G]	0.53
AUCACUGCUAAUGCCGGUCCCAAGCCCGGAUAAAAGUGGAGGGGGCGG [A2U C9U]	0.133
AUCACUGCAAAUGCCGGUCCCAAGCCCGGAUAAAAGUGGAGGGGGCGG [A2U C9A]	0.0899
AGCACUGCCAAUGCCGGUCCCAAGCCCGGAUAAAAGUGGAGGGGCCGG [A2G G45C]	0.0901
AGCACUGCCAAUGCCGGUCCCAAGCCCGGAUAAAAGCGGAGGGGGCGG [A2G U37C]	0.0955
AUCACUGCCAAUGCCGGUCGCAAGCCCGGAUAAAAGUGGAGGGGGCGG [A2U C20G]	0.0669
AGCACUGCCAAUGCCGGUCCCAAGCCCGGAUAAAAGUGGAGGGGGCGU [A2G G48U]	0.255
AGCACUGCCAAUGCCGGUCCCAAGCCCGGAUAAAAGUGGAGGGGGCGC [A2G G48C]	0.389
AUCACUGCCAAUGCCGGUCCCAAGCCCGGAUAAAAGUGGAGGAGGCGG [A2U G43A]	0.128
AUCACUGCCAAUGCCGGUCCCAAGCCCGGAUAAACGUGGAGGGGGCGG [A2U A35C]	0.745
AUCACUGCCAAUGCCGGUCCCAAGCCCGGAUAAAACUGGAGGGGGCGG [A2U G36C]	0.129
AUCACUGCCAAUGCCGGUCCCAAGCCCGGAUAAAAGUGGAGGGGGCAG [A2U G47A]	0.292
AUCACUGCCAAUGCCGGUCCCAAGCCCGGAUUAAAGUGGAGGGGGCGG [A2U A32U]	0.722
AUCACUGCCAAUGCCGGUCCCAAGCCCGGUUAAAAGUGGAGGGGGCGG [A2U A30U]	0.713
AUCACUCCCAAUGCCGGUCCCAAGCCCGGAUAAAAGUGGAGGGGGCGG [A2U G7C]	0.0748
AUCACUGCCAAUGCCGGUCCCAAGCCCGGAUAAAAGUGGAGGGGUCGG [A2U G45U]	0.344
AUCACUGCCAAUGCCGAUCCCAAGCCCGGAUAAAAGUGGAGGGGGCGG [A2U G17A]	0.131
